# Measurements from patent publication US20190046600A1 (published 2019).
# Square brackets hold non-standard residues; d marks the D form. Phe(4-guanidino) = N=C(N)Nc1ccc(C[C@H](N)C(=O)O)cc1
# Molecular target: Lactate dehydrogenase A [LDHA] (human, UniProt P00338 2-332)
# Assay: cell-based or functional assay
row,Binder,"IC50 of LDH activity (Abcam LDH activity kit, lysates of NCI-H460 cells treated for 24 or 96 h) [µM]"
1,PRGPRPVWWRRWWRRWW (cyclic peptide (cyclo-[...])) [HILR-025 (cyclo-[Pro-Arg-Gly-Pro-Arg-Pro-Val-Trp-Trp-Arg-Arg-Trp-Trp-Arg-Arg-Trp-Trp])],16
2,cyclo(PRGPRPVWW[Phe(4-guanidino)][Phe(4-guanidino)]WW[Phe(4-guanidino)][Phe(4-guanidino)]WW) [HILR-030 (cyclo-[Pro-Arg-Gly-Pro-Arg-Pro-Val-Trp-Trp-Gpa-Gpa-Trp-Trp-Gpa-Gpa-Trp-Trp])],22
